Results reported in the supplement of paper PMC9170038.

System: MS2 coat protein
Test: apparent KD of MS2 coat protein; designed switch direction (-1 OFF switch, 1 ON switch): -1; higher = weaker reporter binding
Summary of the method: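 Stalled E. coli RNA polymerase transcribed designed RNA switches on Illumina chips, which were then titrated with SNAP-549-labelled MS2 coat protein, doubling from 0.7 or 1.5 nM to 3 µM. Steps lasted from 0.8–1.5 h at the lowest concentration to 10–20 min at the highest. The apparent KD is each design's median over clusters of curve-fitted normalised fluorescence.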

[1] = Eterna round: R95, input ligand: FMN 200 uM
[2] = Eterna round: R95, input ligand: microRNA oligo, concentration not stated
[3] = Eterna round: R95, input ligand: none
[4] = input ligand: microRNA oligo, concentration not stated

Sequence: AGAAGUAGUAACCGAUCCUACAUGAGGAUCACCCAUGUAGCUAGACGUGCACGCGAAGCUCGUCAGACUACCAGAUG [salish99_TOv1_r3_023] (puzzle: Sensor v3, turn-off variant 1)
- apparent KD of MS2 coat protein [1]: 298 nM
- apparent KD of MS2 coat protein [2]: 273 nM
- apparent KD of MS2 coat protein [3]: 212 nM

Sequence: ACAUGAGGAUCACCCAUGUCUGGCUGGUCCGUCUCGGCUGUCGAGGAUAUGGCUCGGUGUCCGCGCUAGAAGGCGGGAGCCGGA [Aenatbe mod 77] (Eterna round: R96, puzzle: Exclusion NG 3)
- apparent KD of MS2 coat protein (input ligand: FMN 200 uM): 685 nM
- apparent KD of MS2 coat protein [4]: 58.2 nM
- apparent KD of MS2 coat protein (input ligand: none): 78.8 nM

Sequence: CAAAAUGUAUAAGGAUAUCUCGCCAAUAAAGGCAGAGAAGGUAUACCCACUUGAGGAUCACCCAAGUCACGUGUGCCUGGUGGA [Mutated MS2 EX1.25] (Eterna round: R96, puzzle: Exclusion NG 1)
- apparent KD of MS2 coat protein (input ligand: FMN 200 uM): 9.27 nM
- apparent KD of MS2 coat protein [4]: 9.25 nM
- apparent KD of MS2 coat protein (input ligand: none): 11 nM

Sequence: UCUUACUGAGGAUAUACUUAGAUUUACAUGAGGAUCACCCAUGUUCCUCUAUGUAUAUAUGUAGAAGGCAGAAGAA [Mat - Exclusion 5 - JL Mod - D46] (Eterna round: R97, puzzle: Exclusion 5)
- apparent KD of MS2 coat protein (input ligand: FMN 200 uM): 241 nM
- apparent KD of MS2 coat protein (input ligand: none): 37.1 nM

Sequence: AAGUACCGUCACGAUAGUGAUGGUACAGCAAGCAGUGAAACAUGAGGAUCACCCAUGUCCUCAAUUGCUCGUCUUAU [Sensor 3 - 78] (puzzle: Sensor v3, turn-off variant 2)
- apparent KD of MS2 coat protein [1]: 43.3 nM
- apparent KD of MS2 coat protein [2]: 211 nM
- apparent KD of MS2 coat protein [3]: 44.5 nM

Sequence: AGUCCUGGAGUUAGGAUAUGGUGUAUCGCUGCGCUUCAGAAGGGACUUGAGGAUCACCCAAGUAGCCGUGAGGG [salish99_bmod_ex4_r4_007] (Eterna round: R97, puzzle: Brourd's mod of Exclusion 4)
- apparent KD of MS2 coat protein (input ligand: FMN 200 uM): 49.9 nM
- apparent KD of MS2 coat protein (input ligand: none): 60.2 nM

Sequence: AUUAUAUAGGUAGGAUAUAGAAUAUUAUUUUAACAUGAGGAUCACCCAUGUAACCUUAUGUGUAGCUAGAAGGACCAUUUAUUA [Title] (Eterna round: R96, puzzle: Exclusion NG 2)
- apparent KD of MS2 coat protein [4]: 64.6 nM

Sequence: UGUGCGUAUGUGAGGAUAUGCUGGUCCUUGGAUCGGCAGAAGGCACAUGAGGAUCACCCAUGUGGUGUCGUACA [salish99_Bmod_ex4_086] (puzzle: Brourd's mod of Exclusion 4)
- apparent KD of MS2 coat protein [2]: 204 nM

Sequence: CCAAAGUCAGGAUAUACAUGAGGAUCACCCAUGUAAAAUUUUAAUUUAAUUUGAAGGUGUAGAAGGGACAAACC [Ex3 #32] (Eterna round: R97, puzzle: Exclusion 3)
- apparent KD of MS2 coat protein (input ligand: FMN 200 uM): 30.5 nM
- apparent KD of MS2 coat protein (input ligand: none): 30.3 nM

Sequence: UUUUAACAUGAGGAUCACCCAUGUGAGGAUAUCGUAAUUUUUAUUAAUAUUAAUAAAACGAGAAGGCACAUUUU [JMF 13] (puzzle: Exclusion 1)
- apparent KD of MS2 coat protein [2]: 66.8 nM

Sequence: AUUAGCGUAGGAUAUUGAUACAUGUACAUGAGGAUCACCCAUGUGAGGUGAGUCUUGGAUUAAGAAGGGCGAAGAA [EX5 #37] (Eterna round: R97, puzzle: Exclusion 5)
- apparent KD of MS2 coat protein (input ligand: FMN 200 uM): 1080 nM
- apparent KD of MS2 coat protein (input ligand: none): 1270 nM

Sequence: UUCCUACAUGAGGAUCACCCAUGUGAGGAUAUGCAUCGUAUUAUUCUCGUAUGUAGUAGCAGAAGGCGCAUUGG [Starry Exclusion 1.1] (puzzle: Exclusion 1)
- apparent KD of MS2 coat protein [1]: 121 nM
- apparent KD of MS2 coat protein [2]: 36.9 nM
- apparent KD of MS2 coat protein [3]: 31.2 nM

Sequence: GGUAUGGCCACAGGAUAUUGAGCCACAUGAGGAUCACCCAUGUGAGGACGUAGAAUCGCCUGGCCCAAGAAGGGUGAAGCCCAU [Eternabot solution 4] (Eterna round: R96, puzzle: Exclusion NG 2)
- apparent KD of MS2 coat protein (input ligand: FMN 200 uM): 17.1 nM
- apparent KD of MS2 coat protein [4]: 13.1 nM
- apparent KD of MS2 coat protein (input ligand: none): 28 nM

Sequence: GUUUCACAUGAGGAUCACCCAUGUGAGGAUAUGGACUUUUUAGUAAUAAUUGUUGGGUUCAGAAGGCGCGUGAU [JR_Exc1_Sub005] (Eterna round: R97, puzzle: Exclusion 1)
- apparent KD of MS2 coat protein (input ligand: FMN 200 uM): 53.1 nM
- apparent KD of MS2 coat protein (input ligand: none): 44.7 nM

Sequence: GAGAAACAUGAGGAUCACCCAUGUGAGGAUAUGAGCACGCCGGUGACGGUGAUAAGAAUCAGAAGGCACAAAGG [Mat - Exclusion 1 - JL Mod - D33] (Eterna round: R97, puzzle: Exclusion 1)
- apparent KD of MS2 coat protein (input ligand: FMN 200 uM): 422 nM
- apparent KD of MS2 coat protein (input ligand: none): 67.6 nM

Sequence: UAUCAUCAUGUAGGAUAUGCGUGGCAAAGCUAUGCAGAAGGACAUGAGGAUCACCCAUGUUCUAGCGUCUGCGUACAGAUGCUA [Mat - Exclusion NG 1 - Mod of JL - D74] (Eterna round: R96, puzzle: Exclusion NG 1)
- apparent KD of MS2 coat protein (input ligand: FMN 200 uM): 247 nM
- apparent KD of MS2 coat protein [4]: 45.2 nM
- apparent KD of MS2 coat protein (input ligand: none): 68.7 nM

Sequence: AAGAAACAUGAGGAUCACCCAUGUGAGGAUAUGUAAAAUAAAAGAAAAGAAAUAAUAAACAGAAGGCACAAAGG [Mat - Mod of Hog D15] (puzzle: Exclusion 1)
- apparent KD of MS2 coat protein [1]: 52.1 nM
- apparent KD of MS2 coat protein [2]: 30.9 nM
- apparent KD of MS2 coat protein [3]: 41.4 nM

Sequence: GUGUAGUGAGGAUAUACAUGAGGAUCACCCAUGUGAAUAAGAUAGAAUAAGAUAAAGUGUAGAAGGCACAGUGU [Excluse me!!! 3 - Jieux - Exclusion 3] (puzzle: Exclusion 3)
- apparent KD of MS2 coat protein [1]: 39.5 nM
- apparent KD of MS2 coat protein [2]: 35.7 nM
- apparent KD of MS2 coat protein [3]: 41.9 nM
